In PMC7948469:

Assays:
[1] = molecular target: plasminogen-binding group A streptococcal M-protein (Streptococcus pyogenes (GAS isolate AP53)); assay: SPR; PAM amine-coupled on a CM-5 chip (up to 250 RU); Pg flowed at 0-50 nM (hPg[D219N] up to 300 nM); 25 °C; HBS-EP+ (10 mM Na-Hepes/150 mM NaCl/3 mM EDTA/0.05% polysorbate 20, pH 7.4); 1:1 Langmuir fit; KD from koff/kon
[2] = molecular target: mouse plasminogen (mouse); assay: SPR; each Pg amine-coupled on a CM-5 chip (~1200 RU); SK1 flowed at 0-0.25 uM, SK2b at 0-2 uM; 25 °C; HBS-EP+ with 50 uM p-nitrophenyl-p'-guanidinobenzoate; 1:1 Langmuir fit; KD from koff/kon
[3] = molecular target: hHC-mLC (human heavy chain-mouse light chain) chimeric plasminogen (human | mouse) (UniProt P00747); assay: as above
[4] = molecular target: mHC-hLC (mouse heavy chain-human light chain) chimeric plasminogen (mouse | human) (UniProt P00747); assay: as above
[5] = molecular target: hPg[D219N] (human Pg with a [D219N] mutation) (human); assay: as above
[6] = molecular target: human plasminogen (human); assay: as above
[7] = molecular target: mHC-hLC (mouse heavy chain-human light chain) chimeric plasminogen (mouse | human) (UniProt P00747)
[8] = molecular target: hPg[D219N] (human Pg with a [D219N] mutation) (human)
[9] = molecular target: human plasminogen (human)

Chain of plasminogen-binding group A streptococcal M-protein (Streptococcus pyogenes (GAS isolate AP53)) (P49054 30-380 limits assumed): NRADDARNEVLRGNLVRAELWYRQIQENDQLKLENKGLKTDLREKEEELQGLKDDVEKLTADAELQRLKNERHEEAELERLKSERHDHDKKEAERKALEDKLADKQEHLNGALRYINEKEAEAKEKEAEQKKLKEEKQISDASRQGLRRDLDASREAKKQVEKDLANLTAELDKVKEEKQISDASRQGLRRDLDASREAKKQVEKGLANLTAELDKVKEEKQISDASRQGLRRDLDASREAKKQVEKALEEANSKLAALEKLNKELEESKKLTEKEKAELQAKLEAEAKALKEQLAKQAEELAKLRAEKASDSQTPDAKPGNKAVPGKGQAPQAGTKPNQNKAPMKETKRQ

Substance | Kd [1] | koff [1] | kon [1] | Kd [2] | koff [2] | kon [2] | Kd [3] | koff [3] | kon [3] | Kd [4] | koff [4] | kon [4] | Kd [5] | koff [5] | kon [5] | Kd [6] | koff [6] | kon [6] | other results
mHC-hLC (mouse heavy chain-human light chain) chimeric plasminogen (from UniProt P00747 581-810) | 16 nM | 0.0038 s⁻¹ | 240000 M⁻¹ s⁻¹ |  |  |  |  |  |  |  |  |  |  |  |  |  |  |  | 
hHC-mLC (human heavy chain-mouse light chain) chimeric plasminogen (from UniProt P00747 20-580) | 3 nM | 0.0012 s⁻¹ | 390000 M⁻¹ s⁻¹ |  |  |  |  |  |  |  |  |  |  |  |  |  |  |  | 
streptokinase SK2b (natural protein) |  |  |  | 240 nM | 0.0016 s⁻¹ | 6000 M⁻¹ s⁻¹ | 187 nM | 0.0014 s⁻¹ | 8000 M⁻¹ s⁻¹ | 202 nM | 0.0016 s⁻¹ | 8000 M⁻¹ s⁻¹ | 73 nM | 0.0012 s⁻¹ | 17000 M⁻¹ s⁻¹ | 85 nM | 0.0015 s⁻¹ | 18000 M⁻¹ s⁻¹ | % active site formation in the SK2b-Pg complex (MUGB cleavage), with saturating PAM (5 uM) [7]: 33%; % active site formation in the SK2b-Pg complex (MUGB cleavage), without PAM [7]: 18%; % active site formation in the SK2b-Pg complex (MUGB cleavage), with saturating PAM (5 uM) [8]: 86%; % active site formation in the SK2b-Pg complex (MUGB cleavage), without PAM [8]: 66%; % active site formation in the SK2b-Pg complex (MUGB cleavage), with saturating PAM (5 uM) [9]: 78%; % active site formation in the SK2b-Pg complex (MUGB cleavage), without PAM [9]: 19%
human plasminogen (natural protein) | 2.2 nM | 0.0006 s⁻¹ | 270000 M⁻¹ s⁻¹ |  |  |  |  |  |  |  |  |  |  |  |  |  |  |  | 
streptokinase SK1 (natural protein) |  |  |  | 6.1 nM | 0.0102 s⁻¹ | 1.65e+06 M⁻¹ s⁻¹ | 1.9 nM | 0.0059 s⁻¹ | 3.03e+06 M⁻¹ s⁻¹ | 1 nM | 0.0016 s⁻¹ | 1.57e+06 M⁻¹ s⁻¹ | 0.4 nM | 0.0005 s⁻¹ | 1.48e+06 M⁻¹ s⁻¹ | 0.9 nM | 0.0015 s⁻¹ | 1.65e+06 M⁻¹ s⁻¹ | 
mouse plasminogen (natural protein) | 14 nM | 0.0033 s⁻¹ | 260000 M⁻¹ s⁻¹ |  |  |  |  |  |  |  |  |  |  |  |  |  |  |  | 
